Biological target: tau (residues 149-395) labeled with Alexa Fluor 488 at C291 (human) (UniProt P10636)
Assay: fluorescence correlation spectroscopy

UniProt P10636, sequence (P10636 466-712 C639S): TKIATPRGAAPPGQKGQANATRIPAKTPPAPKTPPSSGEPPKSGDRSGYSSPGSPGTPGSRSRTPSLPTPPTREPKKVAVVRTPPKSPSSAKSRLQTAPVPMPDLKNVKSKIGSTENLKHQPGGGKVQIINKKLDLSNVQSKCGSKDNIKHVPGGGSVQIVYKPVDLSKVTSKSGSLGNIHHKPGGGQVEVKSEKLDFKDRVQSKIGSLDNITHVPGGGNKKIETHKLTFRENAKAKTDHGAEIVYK

“tailless tubulin (subtilisin-cleaved bovine brain tubulin) (from UniProt Q6B856 1-445) (complex)” was tested, and the fold weaker affinity than intact tubulin was 5 fold and the maximum increase in diffusion time of tau was 0.15 ms.
